A short description of data set [1]: Stability to degradation on incubation. The data set is classed as physicochemical. The settings on record: 72-hours incubation at ambient temperature or at 37° C., neutral pH.
For data set [2], the target named is T1, human plasma kallikrein (Homo sapiens, UniProt P03952).
T1 construct: purchased Sigma (St. Louis, Mo.)
In words: Anti-protease activity before and after nebulization. The format is biochemical. On the procedure: The aim of this study was to assess the anti-protease activity of Bikunin (1-170) described in Example 17 following nebulization. All studies were performed with Bikunin formulated in phosphate buffered saline, pH 7.4 (137 mM NaCl, 3 mM KCl, 3 mM KH2PO4, 8 mM Na2HPO4, 0.02 g/L Tween 80).
Raindrop® Medication Nebulizer: Bikunin was aerosolized at concentrations of 1 and 3 mg/mL. The nebulizer cup was filled with 2.5 mL of Bikunin solution. Aerosolisation was performed at 7.35 L/min or 35 psi.
Collison Nebulizer: Bikunin was aerosolised at a concentration of 4.7 mg/mL. The nebulizer cup was filled with 2.5 mL of Bikunin solution. Aerosolisation was performed at 35 psi.
Aerosolised Bikunin was collected using a twin impinger (6.4 um mean aerodynamic particle cut-off size at 60 L/min through the system). The impinger works on the principle of liquid impingement and divided the aerosol into a non-respirable fraction (>6.4 um collected in Stage 1) and a respirable fraction (<6.4 um collected in Stage 2).
Bikunin activity was measured in vitro by its inhibition of human plasma kallikrein.

The test system of data set [3] is human bronchial epithelial cell (HBE). The data set is described as follows: Short circuit current (Isc) in cultured human bronchial epithelial (HBE) cells, Ussing chamber. The data set is classed as cell-based. The settings on record: for sodium current: over a 90 minute period, FIG. 17.
Description: Tertiary HBE cell monolayer grown to confluence were mounted in modified Ussing chambers, immersed in Krebs buffer (KBR) solution and bubbled with 95% O2/5% CO2 warmed to 37 C.
Cells were left to equilibrate for 20 minutes before calibrating for background noise and fluid resistance. Transepithelial potential difference was then clamped to 0 mV using a WPI EVC 4000 voltage clamp. Ag/AgCl electrodes were used to monitor Isc. […] Once a response to amiloride was seen, it was washed out with KBR solution. […] 90 minutes following agent treatment, amiloride (10 uM) was added. Once the current was stable forskolin (10 uM) and then bumetanide (100 uM) was added.
Tertiary HBE cell monolayers grown to confluence were mounted in modified Ussing chambers, immersed in Krebs buffer (KBR) solution and bubbled with 95% O2/5% CO2 warmed to 37 C.
Cells were left to equilibrate for 20 minutes before calibrating for background noise and fluid resistance. Transepithelial potential difference was then clamped to 0 mV using a WPI EVC 4000 voltage clamp. Ag/AgCI electrodes were used to monitor Isc. […] Once a response to amiloride was seen, it was washed out with KBR solution. […] 90 minutes following agent treatment, amiloride (10 uM) was added.
The subject of data set [4] is human CF bronchial epithelial cells. In words: Short circuit current (Isc) in cultured human cystic fibrosis bronchial epithelial cells. The data set is classed as cell-based.
Description: HBE cells were isolated from CF patient lung transplant tissue and grown in collagen coated flasks for one week. The cells were then passaged and seeded onto collagen coated Costar Transwell filters (0.33 cm2) and grown in DMEM/F12 media supplemented with 2% Ultroser G. Cells were grown at an air liquid interface and used 2 to 4 weeks after seeding:
Cells on the Transwell filters were mounted in modified Costar Ussing chambers and studied under Isc conditions. […] Isc was recorded for 100 minutes and then the apical bath fluid was exchanged with fresh buffer. Trypsin (100 BAEE units/mL) was added to the apical side and Isc recorded for 10 minutes. Amiloride (10 uM) was then added to the apical side and Isc was recorded for a further 10 minutes.
HBE cells were isolated from CF patient lung transplant tissue and grown in collagen coated flasks for one week. The cells were then passaged and seeded onto collagen coated Costar Transwell filters (0.33 cm^2) and grown in DMEM/F12 media supplemented with 2% Ultroser G. Cells were grown at an air liquid interface and used 2 to 4 weeks after seeding.
Cells on the Transwell filters were mounted in modified Costar Ussing chambers and studied under Isc conditions. […] Isc was recorded for 90 minutes and then amiloride (10 uM) was added and Isc was recorded for a further 10 minutes. The apical bath fluid was then exchanged with fresh buffer, and Isc was recorded for a further 15 minutes. Trypsin (1 uM) was added to the apical side and Isc recorded for 15 minutes. Amiloride (10 uM) was then added to the apical side and Isc was recorded for a further 10 minutes.
For data set [5], the system named is guinea pig trachea. The data set is described as follows: Tracheal potential difference in the guinea-pig. The format is in vivo. The settings on record: 5 ug topical instillation; three hours of treatment; relative to vehicle; FIG. 15. On the procedure: The aim of this study was to investigate the effect of the Kunitz serine protease inhibitor Bikunin, and the sodium channel blocker amiloride on guinea-pig tracheal potential difference 3 hours post treatment. These agents were delivered into the cephalad trachea by topical instillation. TPD was monitored 2 hours later for 60 minutes. The procedure used in this Example is described in Newton et al. in “Cilia, Mucus and Mucociliary Interactions,” Ed., Baum, G. L. et al., Marcel Dekker, New York, 1998; Newton et al., Ped. Pulm. S17, Abs. 364, 1998).
Aqueous formulations of Bikunin (1-170) (5 and 50 ug/mL (SEQ ID NO: 52)) (as described in Example 17 below) and amiloride (obtained from Sigma Chemicals, St. Louis, Mo., USA)(100 uM) were prepared, sterile filtered and endotoxin tested prior to use. […]
Two hours following agent treatment, guinea-pigs were anaesthetised for a second time with Hypnom® and Hypnovel® and immobilised in a supine position. Rectal temperature, measured with a thermistor probe was maintained at 37° C. by manual adjustment of a heat lamp. […] 20 min. following induction of i.m. anaesthesia the tracheal agar electrode was inserted into the cephalad trachea and tracheal potential difference was measured for 60 minutes. […]

Data set [6] has as its system guinea pig trachea. In words: Tracheal potential difference in guinea pigs pretreated with LPS. The settings on record: 50 ug/mL topical instillation; guinea pigs pre-exposed to LPS; FIG. 25(b). The data set is classed as in vivo. On the procedure: Polymorphonuclear (PMN) leukocyte (neutrophil) dominated airway inflammation is often a feature of CF lung disease. In the guinea pig, exposure to an aerosol of E. coli lipopolysaccharide (LPS) induces a marked PMN influx in the bronchoalveolar Iavage fluid 24 hours post challenge. The aim of this study was to investigate the effect of Bikunin (1-170) described in Example 17 on tracheal potential difference in guinea pigs pre-exposed to an aerosol of LPS. Agents were delivered into the cephalad trachea by topical instillation. TPD was monitored for 60 minutes, 23 hours after exposure to LPS.
Bikunin (1-170) was formulated in Hank's Balanced salt solution (HBSS). Amiloride was obtained from Sigma Chemicals and formulated in HBSS. Vehicle control was HBSS. Hypnorm (Fentanyl citrate 0.315 mg/mL and Fluanisone 10 mg/mL) was obtained from Janssen Animal Health and Hypnovel (Midazolam 5 mg.mL) was obtained from Roche. […]
23.4 hours following LPS treatment, guinea pigs were anaesthetised with Hypnorm and Hypnovel and immobilised in a supine position. […] Rectal temperature was monitored with a thermistor probe.
20 minutes following induction of anaesthesia, Bikunin (50 ug/mL) or amiloride (100 uM) was topically instilled into the cephalad trachea. The tracheal agar electrode was then inserted into the cephalad trachea and tracheal potential difference was measured for 60 minutes. […]

Where two headings read alike, the source gives them in different places.

T1 sequence (P03952 391-638 limits assumed): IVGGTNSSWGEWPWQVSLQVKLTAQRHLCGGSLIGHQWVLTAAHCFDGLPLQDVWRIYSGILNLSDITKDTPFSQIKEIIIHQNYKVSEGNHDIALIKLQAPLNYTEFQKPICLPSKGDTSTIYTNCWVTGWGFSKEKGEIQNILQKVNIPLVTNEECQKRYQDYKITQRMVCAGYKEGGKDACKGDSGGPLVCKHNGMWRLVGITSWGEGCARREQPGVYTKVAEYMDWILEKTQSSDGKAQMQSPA
T1 sequence (P03952 20-390 partner limits assumed): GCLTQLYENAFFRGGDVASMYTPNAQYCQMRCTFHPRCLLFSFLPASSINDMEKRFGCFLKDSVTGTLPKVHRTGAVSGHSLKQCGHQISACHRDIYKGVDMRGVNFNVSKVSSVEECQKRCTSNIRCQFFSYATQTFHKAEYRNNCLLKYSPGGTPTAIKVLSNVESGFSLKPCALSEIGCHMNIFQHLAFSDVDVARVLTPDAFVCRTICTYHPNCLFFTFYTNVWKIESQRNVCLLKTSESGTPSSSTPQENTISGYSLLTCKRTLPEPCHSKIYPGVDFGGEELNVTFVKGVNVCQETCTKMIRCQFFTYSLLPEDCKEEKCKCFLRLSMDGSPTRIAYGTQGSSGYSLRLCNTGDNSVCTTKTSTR

B1: CHO Bikunin (1-170): Glycosylated placental bikunin (1-170), SEQ ID NO: 52, expressed in Chinese hamster ovary cells (Example 17) (protein, listed as Homo sapiens)
chain: ADRERSIHDFCLVSKVVGRCRASMPRWWYNVTDGSCQLFVYGGCDGNSNNYLTKEECLKKCATVTENATGDLATSRNAADSSVPSAPRRQDSEDHSSDMFNYEEYCTANAVTGPCRASFPRWYFDVERNSCNNFIYGGCRGNKNSYRSEEACMLRCFRQQENPPLPLGSK
modifications: glycosylated, CHO-expressed
The Ki is a dissociation constant, usually derived from enzyme kinetics or from competition with a known ligand. B1: the stability to degradation result in data set [1] is “stable to degradation”. The Ki in data set [2] (Collison nebulizer, 4.7 mg/mL, read-out: Activity (Ki), post-nebulization) worked out at 0.45 nM; in data set [2] (Collison nebulizer, 4.7 mg/mL, read-out: Activity (Ki), pre-nebulization) it was 0.27 nM; in data set [2] (Raindrop nebulizer, 1 mg/mL, read-out: Activity (Ki), post-nebulization), 0.76 nM; in data set [2] (Raindrop nebulizer, 1 mg/mL, read-out: Activity (Ki), pre-nebulization), 0.47 nM; in data set [2] (Raindrop nebulizer, 3 mg/mL, read-out: Activity (Ki), post-nebulization), 0.62 nM; in data set [2] (Raindrop nebulizer, 3 mg/mL, read-out: Activity (Ki), pre-nebulization), 0.52 nM. Further, the stability to aerosolization entry in data set [2] (Raindrop and Collison nebulizers) was “stable to aerosolization and retained its anti-protease activity”. Further, the “Forskolin induced cAMP-mediated chloride secretion and monolayer resistance” value in data set [3] (70 nM) is on record as “unaffected”. For the same molecule, the sodium current entry in data set [3] (70 nM) was “decreases sodium current”; in data set [3] (70 nM, listed as Bukinin), “inhibited sodium current”. The “inhibition of Na+ Isc” value in data set [3] (5 ug.ml−1, normal HBE cells, n=6, further study) is 84%. Besides, in data set [3] (5 ug/mL, FIG. 20), the “sodium short circuit current” value is “decrease sodium short circuit current”. Moreover, the Isc entry is “inhibited” in data set [4] (1 ug/mL); “inhibited Isc” in data set [4] (10 ug/mL in PBS, over a 90 minute period, FIG. 28(a)); “decreases sodium current” in data set [4] (10 ug/mL in PBS, over a 90 minute period, FIG. 28(a), listed as CHO expressed Bikunin (1-170)); “decreases sodium current” in data set [4] (1, 5, and 10 ug/mL, at 90 minutes after apical application, FIG. 28(b)); “inhibited Isc” in data set [4] (1, 5, and 10 ug/mL, at 90 minutes after apical application, FIG. 28(b), listed as bikunin (1-170)). Besides, the tracheal potential difference entry in data set [5] is “inhibited the potential difference”; in data set [6], “significantly inhibited potential difference”.

Values taken from patent US20070086956A1, “Method for accelerating the rate of mucociliary clearance” (BAYER AKTIENGESELLSCHAFT, priority 1998, published 2007).
